Earlier results, collected in PMC8693730.
Where two headings read alike, the source gives them in different places.

Legend:
RAP74 (Homo sapiens) [1] = target: RAP74 (Homo sapiens) (UniProt P35269)
RAP74 (Homo sapiens) [2] = target: RAP74 (Homo sapiens) (UniProt P35269); remark: listed apart in the source

Chain of UniProt P35269 (P35269 2-517): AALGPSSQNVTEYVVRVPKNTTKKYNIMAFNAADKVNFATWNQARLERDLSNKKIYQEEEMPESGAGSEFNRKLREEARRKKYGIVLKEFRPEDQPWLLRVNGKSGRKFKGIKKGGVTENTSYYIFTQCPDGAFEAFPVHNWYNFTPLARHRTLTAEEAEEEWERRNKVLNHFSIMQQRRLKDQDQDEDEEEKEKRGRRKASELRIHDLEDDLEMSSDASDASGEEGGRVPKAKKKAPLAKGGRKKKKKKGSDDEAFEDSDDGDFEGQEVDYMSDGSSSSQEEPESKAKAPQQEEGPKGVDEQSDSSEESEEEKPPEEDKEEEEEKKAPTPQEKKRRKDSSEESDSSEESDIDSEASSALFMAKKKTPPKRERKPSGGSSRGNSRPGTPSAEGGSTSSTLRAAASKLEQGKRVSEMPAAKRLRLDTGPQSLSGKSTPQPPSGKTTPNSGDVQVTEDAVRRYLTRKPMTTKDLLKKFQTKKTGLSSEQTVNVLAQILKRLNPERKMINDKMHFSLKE

Kd (RAP74 (Homo sapiens) [1]): 702 µM
Kd (RAP74 (Homo sapiens) [2]): 1750 µM
Substance: androgen receptor NTD (from UniProt P10275)
